Assays:
[1] = molecular target: T1, TWEAKR(28-68)-HIS (TPP-1984) (Homo sapiens, UniProt Q9NP84); assay: ELISA with C-terminally truncated TWEAKR ectodomain; type: binding; details: coating 1 μg/ml; 0.08 and 0.3 μg/ml biotinylated IgG
T1 construct: Extracellular domain with C-terminal truncation (28-68) fused to HIS6 tag; made in house
Description: (§1) To analyze for binding, 1 μg/ml of the respective dimeric TWEAKR-Fc construct were coated and, 0.3 μg/ml and 0.08 μg/ml of biotinylated IgG were used as soluble binding partner. Detection was done with Streptavidin-HRP and Amplex-Red substrate. IgGs were biotinylated using an approximately 2-fold molar excess of biotin-LC-NHS (Pierce; Cat. No. 21347) according to manufacturer's instructions and desalted using Zeba desalting columns (Pierce; Cat. No. 89889).

[2] = molecular target: T2, TWEAKR-Fc fusion protein (TPP-2202), aa 28-80 (Homo sapiens, UniProt Q9NP84); assay: ELISA with TWEAKR full ectodomain; type: binding; details: coating 1 μg/ml; 0.08 and 0.3 μg/ml biotinylated IgG
T2 construct: the full ectodomain 28-80 including the N- and C-terminus; made in house
Description: (§2) In a first approach to characterize the binding epitope of the aforementioned antibodies, a N- and C-terminal truncation mutant of the TWEAKR ectodomain was generated and tested for its ability to bind to the different anti-TWEAKR antibodies. N-terminally, amino acids 28 to 33 and C-terminally amino acids 69 to 80 were deleted, thus the cysteine rich domain with disulfide bridges between Cys36-Cys49, Cys52-Cys67 and Cys55-Cys64 remains intact (compare FIG. 2). Both constructs, the full ectodomain 28-80 including the N- and C-terminus and the truncated ectodomain 34-68 were expressed and purified as Fc fusion proteins TPP-2202 and TPP-2203, respectively.
as §1

[3] = molecular target: T3, TWEAKR(34-68)-Fc fusion protein (TPP-2203) (Homo sapiens, UniProt Q9NP84); assay: ELISA with TWEAKR cysteine rich domain; type: binding; details: coating 1 μg/ml; 0.08 and 0.3 μg/ml biotinylated IgG
T3 construct: the truncated ectodomain 34-68 were expressed and purified as Fc fusion proteins; made in house
Description: as §2, §1

[4] = molecular target: T4, TWEAKR-Fc mutein S40R (TPP-1987) (Homo sapiens, UniProt Q9NP84, S40R); assay: ELISA mutein binding; details: coating 62 ng/ml; biotinylated IgG from 100 nM; read-out: IC50 of antibody binding, S40R
T4 construct: the full ectodomain (amino acids 28-80) with the following single amino acid substitutions; made in house
Description: (§3) Therefore, the full ectodomain (amino acids 28-80) with the following single amino acid substitutions were expressed and purified as Fc fusion proteins: T33Q; S40R; W42A; M50A; R56P; H60K; L65Q.
(§4) To collect dose-response data, the different TWEAKR-Fc muteins were coated with a low concentration (62 ng/ml) in a 384-well Maxisorb ELISA plate and a serial 2fold dilution of biotinylated IgG starting with a concentration of 100 nM was used as soluble binding partner. Detection was done with Streptavidin-HRP and Amplex Red.
(§5) IgGs were biotinylated using an approximately 2-fold molar excess of biotin-LC-NHS (Pierce; Cat. No. 21347) according to manufacturer's instructions and desalted using Zeba desalting columns (Pierce; Cat. No. 89889). The dose-response data were fitted and IC50s determined.

[5] = molecular target: T5, TWEAKR-Fc mutein L65Q (TPP-1990) (Homo sapiens, UniProt Q9NP84, L65Q); assay: ELISA mutein binding; details: coating 62 ng/ml; biotinylated IgG from 100 nM; read-out: IC50 of antibody binding, L65Q
T5 construct: the full ectodomain (amino acids 28-80) with the following single amino acid substitutions; made in house
Description: as §3, §4, §5

[6] = molecular target: T6, TWEAKR-Fc mutein H60K (TPP-1989) (Homo sapiens, UniProt Q9NP84, H60K); assay: ELISA mutein binding; details: coating 62 ng/ml; biotinylated IgG from 100 nM; read-out: IC50 of antibody binding, H60K
T6 construct: the full ectodomain (amino acids 28-80) with the following single amino acid substitutions; made in house
Description: as §3, §4, §5

[7] = molecular target: T7, TWEAKR-Fc mutein W42A (TPP-1985) (Homo sapiens, UniProt Q9NP84, W42A); assay: ELISA mutein binding; details: coating 62 ng/ml; biotinylated IgG from 100 nM; read-out: IC50 of antibody binding, W42A
T7 construct: the full ectodomain (amino acids 28-80) with the following single amino acid substitutions; made in house
Description: as §3, §4, §5

[8] = molecular target: T8, TWEAKR-Fc mutein R56P (TPP-2683) (Homo sapiens, UniProt Q9NP84, R56P); assay: ELISA mutein binding; details: coating 62 ng/ml; biotinylated IgG from 100 nM; read-out: IC50 of antibody binding, R56P
T8 construct: the full ectodomain (amino acids 28-80) with the following single amino acid substitutions; made in house
Description: as §3, §4, §5

[9] = molecular target: T9, TWEAKR-Fc mutein M50A (TPP-1988) (Homo sapiens, UniProt Q9NP84, M50A); assay: ELISA mutein binding; details: coating 62 ng/ml; biotinylated IgG from 100 nM; read-out: IC50 of antibody binding, M50A
T9 construct: the full ectodomain (amino acids 28-80) with the following single amino acid substitutions; made in house
Description: as §3, §4, §5

[10] = molecular target: T10, TWEAKR-Fc mutein T33Q (TPP-1986) (Homo sapiens, UniProt Q9NP84, T33Q); assay: ELISA mutein binding; details: coating 62 ng/ml; biotinylated IgG from 100 nM; read-out: IC50 of antibody binding, T33Q
T10 construct: the full ectodomain (amino acids 28-80) with the following single amino acid substitutions; made in house
Description: as §3, §4, §5

TWEAKR-Fc WT (TPP-599) = molecular target: T11, TWEAKR-Fc WT (TPP-599) (Homo sapiens, UniProt Q9NP84); assay: ELISA mutein binding; details: coating 62 ng/ml; biotinylated IgG from 100 nM; read-out: IC50 of antibody binding, WT
T11 construct: TPP-599; HUMAN-TNFRSF12Aaa28-80-hIgG1-Fc; 138; made in house
Description: as §3, §4, §5

[11] = molecular target: T12, TWEAKR protein (TPP-2305) (Homo sapiens, UniProt Q9NP84); assay: Biacore monovalent KD with TWEAKR protein; type: binding; details: first order 1:1 binding model
T12 construct: TPP-2305; hTNFRSF12Aaa28-80; Human; 30R-AT080; 168; purchased Fitzgerald Inc 30R-AT080
Description: Binding affinities of anti-TWEAKR antibodies were determined by surface plasmon resonance analysis on a Biacore T100 instrument (GE Healthcare Biacore, Inc.). Antibodies were immobilized onto a CM5 sensor chip through an indirect capturing reagent, anti-human IgG(Fc). Reagents from the “Human Antibody Capture Kit” (BR-1008-39, GE Healthcare Biacore, Inc.) were used as described by the manufacturer. Anti-TWEAKR antibodies were injected at a concentration of 10 μg/ml at 10 μl/min for 10 sec.
Sensorgrams were generated after in-line reference cell correction followed by buffer sample subtraction. The dissociation equilibrium constant (KD) was calculated based on the ratio of association (kon) and dissociation rated (koff) constants, obtained by fitting sensorgrams with a first order 1:1 binding model.

- ELISA binding to C-terminally truncated ectodomain (28-68) [1]: impaired binding
- ELISA binding to full ectodomain (28-80) [2]: saturated binding
- ELISA binding to N- and C-terminally truncated construct (34-68) [3]: impaired binding
- IC50 [4]: 0.001 to 0.15 nM
- IC50 [5]: 0.001 to 0.15 nM
- IC50 [6]: 0.001 to 0.15 nM
- IC50 [7]: > 50 nM
- IC50 [8]: 0.001 to 0.15 nM
- IC50 [9]: 0.001 to 0.15 nM
- IC50 [10]: 0.001 to 0.15 nM
- IC50 (TWEAKR-Fc WT (TPP-599)): 0.001 to 0.15 nM
- ka [11]: 2.31e+06 M⁻¹ s⁻¹
- kd [11]: 0.00122 s⁻¹
B1: P3G5(TPP-2195): reference anti-TWEAKR antibody, murine IgG2a, from WO2009/140177; SEQ ID NO 121/122 (protein)
light: DIVLTQSPASLAVSLGQRATISCRANKSVSTSSYSYMHWYQQKPGQPPKLLIKYASNLESGVPARFSGSGSGTDFILNIHPVEEEDAATYYCQHSRELPFTFGSGTKLEIKRADAAPTVSIFPPSSEQLTSGGASVVCFLNNFYPKDINVKWKIDGSERQNGVLNSWTDQDSKDSTYSMSSTLTLTKDEYERHNSYTCEATHKTSTSPIVKSFNRNEC
heavy: QVQLQQSGPEVVRPGVSVKISCKGSGYTFTDYGIHWVKQSHAKSLEWIGVISTYNGYTNYNQKFKGKATMTVDKSSSTAYMELARLTSEDSAIYYCARAYYGNLYYAMDYWGQGTSVTVSSAKTTAPSVYPLAPVCGDTTGSSVTLGCLVKGYFPEPVTLTWNSGSLSSGVHTFPAVLQSDLYTLSSSVTVTSSTWPSQSITCNVAHPASSTKVDKKIEPRGPTIKPCPPCKCPAPNLLGGPSVFIFPPKIKDVLMISLSPIVTCVVVDVSEDDPDVQISWFVNNVEVHTAQTQTHREDYNSTLRVVSALPIQHQDWMSGKEFKCKVNNKDLPAPIERTISKPKGSVRAPQVYVLPPPEEEMTKKQVTLTCMVTDFMPEDIYVEWTNNGKTELNYKNTEPVLDSDGSYFMYSKLRVEKKNWVERNSYSCSVVHEGLHNHHTTKSFSRTPG
modifications: Mus Musculus

— patent US20160237160A1, “ANTI-TWEAKR ANTIBODIES AND USES THEREOF” (BAYER PHARMA AKTIENGESELLSCHAFT, priority 2013, published 2016)
